Results published in patent US6706266, “Oncostatin M antagonists” (SmithKline Beecham Corporation).
Substitutions are numbered along the chain they refer to. Numbers in names are those of the source. Where “and” joins values, the source holds several entries; their conditions need not be identical. Equal entries are not always repeated.

T1: gp130 on HepG2 B6 cells (UniProt P40189 23-918, limits assumed)
T1 sequence (looked up): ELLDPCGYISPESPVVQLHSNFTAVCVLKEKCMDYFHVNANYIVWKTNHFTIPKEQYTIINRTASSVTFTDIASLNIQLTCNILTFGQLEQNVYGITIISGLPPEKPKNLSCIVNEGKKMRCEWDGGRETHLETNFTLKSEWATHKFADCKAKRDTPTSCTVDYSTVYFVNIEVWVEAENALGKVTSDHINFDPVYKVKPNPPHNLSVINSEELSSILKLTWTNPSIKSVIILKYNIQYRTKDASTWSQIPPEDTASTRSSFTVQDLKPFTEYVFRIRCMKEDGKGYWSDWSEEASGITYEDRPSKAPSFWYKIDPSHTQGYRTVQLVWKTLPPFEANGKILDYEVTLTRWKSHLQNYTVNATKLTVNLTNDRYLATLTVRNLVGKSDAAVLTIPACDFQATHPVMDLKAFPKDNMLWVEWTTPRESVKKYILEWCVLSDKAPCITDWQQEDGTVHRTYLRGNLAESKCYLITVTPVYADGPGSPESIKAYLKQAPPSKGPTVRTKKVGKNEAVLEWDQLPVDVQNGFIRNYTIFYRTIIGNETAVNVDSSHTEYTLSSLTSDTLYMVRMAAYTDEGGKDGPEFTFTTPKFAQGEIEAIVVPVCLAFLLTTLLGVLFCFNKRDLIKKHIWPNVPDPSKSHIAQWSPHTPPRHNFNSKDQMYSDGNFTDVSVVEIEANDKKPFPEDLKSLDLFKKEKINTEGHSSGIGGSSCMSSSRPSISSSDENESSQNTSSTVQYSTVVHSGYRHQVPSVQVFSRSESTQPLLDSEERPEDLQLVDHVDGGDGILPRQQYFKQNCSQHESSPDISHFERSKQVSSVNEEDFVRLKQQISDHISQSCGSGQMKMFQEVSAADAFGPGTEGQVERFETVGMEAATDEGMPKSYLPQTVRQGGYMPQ

T2: gp130-Fc fusion protein (human, UniProt P40189 23-619)
T2 construct: extracellular domain; not shown: Fc fragment of human IgG1
T2 sequence (looked up): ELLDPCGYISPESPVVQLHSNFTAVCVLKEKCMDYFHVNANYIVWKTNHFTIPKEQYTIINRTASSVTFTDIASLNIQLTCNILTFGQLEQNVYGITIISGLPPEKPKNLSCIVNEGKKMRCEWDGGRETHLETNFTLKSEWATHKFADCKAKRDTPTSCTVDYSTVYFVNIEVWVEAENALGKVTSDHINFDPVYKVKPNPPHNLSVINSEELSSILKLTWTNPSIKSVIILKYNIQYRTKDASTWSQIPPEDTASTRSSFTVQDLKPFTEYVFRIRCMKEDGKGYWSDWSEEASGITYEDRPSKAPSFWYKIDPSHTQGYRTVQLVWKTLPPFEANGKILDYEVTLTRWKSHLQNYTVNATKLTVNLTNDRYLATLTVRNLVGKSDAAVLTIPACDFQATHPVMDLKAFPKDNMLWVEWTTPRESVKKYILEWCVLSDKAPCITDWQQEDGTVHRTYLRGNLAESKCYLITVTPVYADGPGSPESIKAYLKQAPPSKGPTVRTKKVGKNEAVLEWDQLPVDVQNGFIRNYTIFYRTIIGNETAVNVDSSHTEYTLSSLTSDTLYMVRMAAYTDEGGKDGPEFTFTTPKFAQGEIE

T3: oncostatin M (hOSM, mature) (Homo sapiens) (UniProt P13725)
T3 sequence: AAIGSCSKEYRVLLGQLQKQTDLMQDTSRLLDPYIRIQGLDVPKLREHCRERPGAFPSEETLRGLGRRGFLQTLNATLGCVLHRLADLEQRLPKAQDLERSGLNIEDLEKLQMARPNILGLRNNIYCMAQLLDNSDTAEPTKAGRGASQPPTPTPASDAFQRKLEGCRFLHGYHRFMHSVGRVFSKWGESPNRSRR

T4: oncostatin M (hOSM, mature) (Homo sapiens, UniProt P13725 SEQ:26-221)
T4 sequence: T3 sequence

B1: OSM-GST mutant Q18A (ligand)
chain: T3 sequence with Q18A
notes: Alanine mutant of m4; also called (11)Q18A; 11 Q18A; not shown: Its linker is left out
B2: OSM-GST mutant R122A (ligand, not shown: a dimerising Fc or GST; large carriers; small tags and cut ends)
chain: T3 sequence with R122A
notes: Alanine mutant of m4; also called (21)R122A; 21 R122A
B3: OSM-GST mutant Q130A (ligand, not shown: a dimerising Fc or GST; large carriers; small tags and cut ends)
chain: T3 sequence with Q130A
notes: Alanine mutant of m4; also called (25)Y130A; 25 Q130A
B4: OSM-GST mutant S7A (ligand, not shown: a dimerising Fc or GST; large carriers; small tags and cut ends)
chain: T3 sequence with S7A
notes: Alanine mutant of m4; also called (1)S7A; 1 S7A
B5: OSM-GST mutant T21A (ligand, not shown: a dimerising Fc or GST; large carriers; small tags and cut ends)
chain: T3 sequence with T21A
notes: Alanine mutant of m4; also called (14)T21A; 14 T21A
B6: OSM-GST mutant Q25A (ligand, not shown: a dimerising Fc or GST; large carriers; small tags and cut ends)
chain: T3 sequence with Q25A
notes: Alanine mutant of m4; also called (26)Q25A; 26 Q25A
B7: OSM-GST mutant Y126A (ligand, not shown: a dimerising Fc or GST; large carriers; small tags and cut ends)
chain: T3 sequence with Y126A
notes: Alanine mutant of m4; also called (24)Y126A; 24 Y126A
B8: OSM-GST mutant R11A (ligand, not shown: a dimerising Fc or GST; large carriers; small tags and cut ends)
chain: T3 sequence with R11A
notes: Alanine mutant of m4; also called (5)R11A; 5 R11A
B9: OSM-GST mutant Y10A (ligand, not shown: a dimerising Fc or GST; large carriers; small tags and cut ends)
chain: T3 sequence with Y10A
notes: Alanine mutant of m4; also called (4)Y10A; 4 Y10A
B10: ADR147 (aptamer raised to CD95 ligand) (ssRNA)
RNA: GGGAGGACGAUGCGGUUAUACUAAGCUGCGGUUAGCGACAGCCCUCCCUAGCGCCUCAGACGACUCGCCCGA
modifications: 2'-F pyrimidines

molecular target: T1, gp130 on HepG2 B6 cells; assay: cell-based or functional assay; settings: not given

sPAP HepG2 B6 assay: Expt 1 % (EC50 as % of wild type EC50) [%]	sPAP HepG2 B6 assay: Expt 1 EC50 [µg/mL]	sPAP HepG2 B6 assay: Expt 2 % (EC50 as % of wild type EC50) [%]	sPAP HepG2 B6 assay: Expt 2 EC50 [µg/mL]	sPAP HepG2 B6 assay: Mean % of wild type EC50 [%]	sPAP HepG2 B6 assay: Expt 3 % (EC50 as % of wild type EC50) [%]	sPAP HepG2 B6 assay: Expt 3 EC50 [µg/mL]	Molecule
84	0.0202	68	0.0217	76			B1
135	0.0324	43	0.0138	101	124	0.0473	B2
52	0.0125	26	0.0082	39			B3
50	0.012	69	0.0222	59.5			B4
71	0.017	33	0.0105	52			B5
55	0.0133	41	0.013	48			B6
386	0.093	32	0.0103	175	106	0.0408	B7
118	0.0286	86	0.0277	102			B8
134	0.0324	256	0.082	195			B9

molecular target: T2, gp130-Fc fusion protein; assay: competition ELISA: OSM-GST titrated against plate-bound wt OSM for gp130-Fc; mean; settings: not given
Procedure: (§1) Plates were washed (×6 in PBS 0.05% tween 20, using Skatron Plate washer), tapped dry and blocked to reduce non-specific binding (200 µl/well, 1% BSA/PBS). Following 1 h incubation (room temperature on a shaking platform) the plates were tapped dry and wild type (wt) or mutant OSM-GST from Example 9b added (50 µl/well, 20–0.002 µg/ml, titrated in 1%BSA/PBS). As a positive control polyclonal anti-human OSM antibody (R&D Systems) was also tested (20–0.02 µg/ml). […] Following a 5 h incubation (room temperature on a shaking platform) the plates were washed (×6) and developed using ELISA Amplification System (Life Technologies) as manufacturer's instructions and the OD measured at 490 nm.

IC50 [µg/mL]	Molecule
0.395	B1
0.176	B2
0.14	B3
0.133	B4
0.084	B5
0.044	B6
0.382	B7
0.239	B8
0.223	B9

molecular target: T2, gp130-Fc fusion protein; assay: competition ELISA: OSM-GST titrated against plate-bound wt OSM for gp130-Fc; single experiment; settings: not given
Procedure: as §1

IC50	Molecule
0.32 µg/mL and 0.31 µg/mL and 0.555 µg/mL	B1
0.14 µg/mL and 0.22 µg/mL and 0.167 µg/mL	B2
0.145 µg/mL and 0.18 µg/mL and 0.094 µg/mL	B3
0.199 µg/mL and 0.078 µg/mL and 0.121 µg/mL	B4
0.108 µg/mL and 0.044 µg/mL and 0.101 µg/mL	B5
0.042 µg/mL and 0.036 µg/mL and 0.055 µg/mL	B6
0.386 µg/mL and 0.359 µg/mL and 0.4 µg/mL	B7
0.181 µg/mL and 0.255 µg/mL and 0.28 µg/mL	B8
0.32 µg/mL and 0.18 µg/mL and 0.168 µg/mL	B9

molecular target: T3, oncostatin M (hOSM, mature) (Homo sapiens); assay: filter; settings: 2'-F pyrimidines; no affinity at any concentration tested

Molecule	Kd [µM]
GGGAGGACGAUGCGGNNNNNNNNNNNNNNNNNNNNNNNNNNNNNNNNNNNNNNNNCCGCAUCGUCCUCCC [40N7 starting random RNA pool]	> 10

molecular target: T4, oncostatin M (hOSM, mature); assay: competition; little activity in OSM/gp130 ELISA; settings: tags: expressed in E. coli as GST fusion, GST removed by thrombin cleavage
Procedure: as §1, with “Effect of Point Mutations on the Ability of OSM-GST to Compete with Wild Type OSM Binding to gp130-Fc in an ELISA Nunc Immunoplates (F6 Maxisorp, Life Technologies) were coated overnight (4° C.) with wild type OSM (produced according to Example 7a); 50 µl/well, 1 µg/ml in carbonate/bicarbonate buffer pH 9.4). Plates” for “Plates”, “nm. On each plate the total binding was determined by gp130-Fc/conjugate and OSM in the presence of 1%BSA/PBS, and non-specific binding by gp130-Fc/conjugate in absence of OSM, or conjugate binding to OSM in absence of gp130-Fc. […]” for “nm.”

Molecule	binding result
B10	no binding
